Measurements: PMC3725402
Changes are numbered by the printed parent chain. Names may count otherwise.

B1: AtSPDS1 (spermidine synthase 1) (Arabidopsis thaliana; D131I/Q107T/V134T) (protein)
chain: MDAKETSATDLKRPREEDDNGGAATMETENGDQKKEPACFSTVIPGWFSEMSPMWPGEAHSLKVEKVLFQGKSDYQDVIVFQSATYGKVLVLDGVIQLTERDECAYTEMITHLPLCSIPNPKKVLVIGGGIGGTLREVARHASIEQIDMCEIDKMVVDVSKQFFPDVAIGYEDPRVNLVIGDGVAFLKNAAEGSYDAVIVDSSDPIGPAKELFEKPFFQSVARALRPGGVVCTQAESLWLHMDIIEDIVSNCREIFKGSVNYAWTSVPTYPSGVIGFMLCSTEGPDVDFKHPLNPIDESSSKSNGPLKFYNAEIHSAAFCLPSFAKKVIESKAN
notes: pQE-30, N-terminal His tag, E. coli M15[pREP4], HisTrap purified
B2: AtSPDS1 (spermidine synthase 1) (Arabidopsis thaliana) (protein)
chain: B1 chain with T107Q, I131D, T134V
notes: as for B1
B3: AtSPDS1 (spermidine synthase 1) (Arabidopsis thaliana; D131I) (protein)
chain: B1 chain with T107Q, T134V
notes: as for B1

Experiments:
Format in all cases: biochemical, Arabidopsis thaliana
[1] = substrate: C[S+](CC[C@H](N)C(=O)O)C[C@H]1O[C@@H](n2cnc3c(N)ncnc32)[C@H](O)[C@@H]1O; assay: HPLC of dansylated N-methylputrescine, fluorimetric; conditions: PMT activity, co-substrate putrescine, 20 mM HEPES pH 8.0, 37°C, 2 mM DTT, 1 mM ascorbic acid
Text: (§1) HPLC of dansylated N-methylputrescine, fluorimetric on AtSPDS1 (spermidine synthase 1)

[2] = substrate: NCCCCN; assay: as above; conditions: PMT activity, co-substrate SAM, 20 mM HEPES pH 8.0, 37°C, 2 mM DTT, 1 mM ascorbic acid
Text: as §1

[3] = substrate: C[S+](CCCN)C[C@H]1O[C@@H](n2cnc3c(N)ncnc32)[C@H](O)[C@@H]1O; assay: HPLC of dansylated spermidine, fluorimetric; conditions: SPDS activity, co-substrate putrescine, 20 mM HEPES pH 8.0, 37°C, 2 mM DTT, 1 mM ascorbic acid
Text: (§2) HPLC of dansylated spermidine, fluorimetric on AtSPDS1 (spermidine synthase 1)

[4] = substrate: NCCCCN; assay: HPLC of dansylated spermidine, fluorimetric; conditions: SPDS activity, co-substrate dcSAM, 20 mM HEPES pH 8.0, 37°C, 2 mM DTT, 1 mM ascorbic acid
Text: as §2

Protein | Km [1] | kcat [1] | Km [2] | kcat [2] | Km [3] | kcat [3] | Km [4] | kcat [4]
B1 | 12 ± 0.60 µM | 0.081 s⁻¹ | 32 ± 1.88 µM | 0.081 s⁻¹ |  |  |  | 
B2 |  |  |  |  | 18 ± 1.23 µM | 0.722 s⁻¹ | 220 ± 18.44 µM | 0.722 s⁻¹
B3 | 28 ± 0.77 µM | 0.00448 s⁻¹ | 56 ± 4.45 µM | 0.00448 s⁻¹ |  |  |  | 
